Assay results from paper PMC7094245.

Target: T1, IBV N protein amino-terminal region (region 1, NI) (Infectious bronchitis virus (strain …, UniProt P69598 1-133))
T1 sequence: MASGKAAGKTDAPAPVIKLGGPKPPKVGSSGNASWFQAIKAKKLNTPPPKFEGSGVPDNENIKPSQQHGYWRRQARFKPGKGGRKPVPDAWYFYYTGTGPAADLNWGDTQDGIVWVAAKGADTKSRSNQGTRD
Assay: SPR

B1: IBV leader RNA (contains TRS) (ssRNA)
RNA: ACUUAAGAUAGAUAUUAAUAUAUAUCUAUUACACUAGCCUUGCGCUAGAUUUUUAACUGAACAAUACAGACCUAAAAAGUCUGUUUGAUG
Q: With B1 as the binder, how does the Kd read?
A: 1.43 µM
